Data on two molecules can be found in PMC3064261 (Nature, 2011).

Square brackets hold non-standard residues; d marks the D form. Ends that are not written are not given here. pS = N[C@@H](COP(=O)(O)O)C(=O)O

A word on the Kd: it is a measure of binding affinity in units of concentration. Read a low Kd as tighter binding.

In the assay the target is GST-MDC1-BRCT. Nature of the assay: SPR. (In SPR one partner is held on a chip, and binding of the other changes the refractive index at the surface.)

B1: MMSET phosphopeptide containing pS102 (peptide)
chain: AKLRFE[pS]QEMKG
The molecule B1 registered a dissociation constant Kd of 893 nM.

B2: γH2AX peptide (peptide)
chain: KKATQA[pS]QEY
As for B2, the dissociation constant (Kd) amounted to 287 nM.
